Results published in paper doi:10.1101/2025.08.17.670156 (bioRxiv, 2025).

B1: double plant homeodomain fingers 3a (DPF3 isoform a), wild type (natural protein, human, UniProt Q92784-2 1-357, looked up)
chain: MATVIHNPLKALGDQFYKEAIEHCRSYNSRLCAERSVRLPFLDSQTGVAQNNCYIWMEKRHRGPGLAPGQLYTYPARCWRKKRRLHPPEDPKLRLLEIKPEVELPLKKDGFTSESTTLEALLRGEGVEKKVDAREEESIQEIQRVLENDENVEEGNEEEDLEEDIPKRKNRTRGRARGSAGGRRRHDAASQEDHDKPYVCDICGKRYKNRPGLSYHYAHTHLASEEGDEAQDQETRSPPNHRNENHRPQKGPDGTVIPNNYCDFCLGGSNMNKKSGRPEELVSCADCGRSAHLGGEGRKEKEAAAAARTTEDLFGSTSESDTSTFHGFDEDDLEEPRSCRGRRSGRGSPTADKKGSC
B2: DPF3a phosphomimetic S138E (natural protein, human, UniProt Q92784-2 1-357, looked up)
chain: MATVIHNPLKALGDQFYKEAIEHCRSYNSRLCAERSVRLPFLDSQTGVAQNNCYIWMEKRHRGPGLAPGQLYTYPARCWRKKRRLHPPEDPKLRLLEIKPEVELPLKKDGFTSESTTLEALLRGEGVEKKVDAREEEEIQEIQRVLENDENVEEGNEEEDLEEDIPKRKNRTRGRARGSAGGRRRHDAASQEDHDKPYVCDICGKRYKNRPGLSYHYAHTHLASEEGDEAQDQETRSPPNHRNENHRPQKGPDGTVIPNNYCDFCLGGSNMNKKSGRPEELVSCADCGRSAHLGGEGRKEKEAAAAARTTEDLFGSTSESDTSTFHGFDEDDLEEPRSCRGRRSGRGSPTADKKGSC
B3: DPF3a phosphomimetic S348E (natural protein, human, UniProt Q92784-2 1-357, looked up)
chain: MATVIHNPLKALGDQFYKEAIEHCRSYNSRLCAERSVRLPFLDSQTGVAQNNCYIWMEKRHRGPGLAPGQLYTYPARCWRKKRRLHPPEDPKLRLLEIKPEVELPLKKDGFTSESTTLEALLRGEGVEKKVDAREEESIQEIQRVLENDENVEEGNEEEDLEEDIPKRKNRTRGRARGSAGGRRRHDAASQEDHDKPYVCDICGKRYKNRPGLSYHYAHTHLASEEGDEAQDQETRSPPNHRNENHRPQKGPDGTVIPNNYCDFCLGGSNMNKKSGRPEELVSCADCGRSAHLGGEGRKEKEAAAAARTTEDLFGSTSESDTSTFHGFDEDDLEEPRSCRGRRSGRGEPTADKKGSC

Target: the molecule itself
Test: deep-blue autofluorescence of amyloid fibrils

Binding result, binds:
B1
B2
B3
